This experiment deals with mouse hypoxia inducible factor-2 alpha (mouse, UniProt P97481 1-874). Nature of the experiment: cell-based or functional assay.
Chain of mouse hypoxia inducible factor-2 alpha (P97481 whole entry): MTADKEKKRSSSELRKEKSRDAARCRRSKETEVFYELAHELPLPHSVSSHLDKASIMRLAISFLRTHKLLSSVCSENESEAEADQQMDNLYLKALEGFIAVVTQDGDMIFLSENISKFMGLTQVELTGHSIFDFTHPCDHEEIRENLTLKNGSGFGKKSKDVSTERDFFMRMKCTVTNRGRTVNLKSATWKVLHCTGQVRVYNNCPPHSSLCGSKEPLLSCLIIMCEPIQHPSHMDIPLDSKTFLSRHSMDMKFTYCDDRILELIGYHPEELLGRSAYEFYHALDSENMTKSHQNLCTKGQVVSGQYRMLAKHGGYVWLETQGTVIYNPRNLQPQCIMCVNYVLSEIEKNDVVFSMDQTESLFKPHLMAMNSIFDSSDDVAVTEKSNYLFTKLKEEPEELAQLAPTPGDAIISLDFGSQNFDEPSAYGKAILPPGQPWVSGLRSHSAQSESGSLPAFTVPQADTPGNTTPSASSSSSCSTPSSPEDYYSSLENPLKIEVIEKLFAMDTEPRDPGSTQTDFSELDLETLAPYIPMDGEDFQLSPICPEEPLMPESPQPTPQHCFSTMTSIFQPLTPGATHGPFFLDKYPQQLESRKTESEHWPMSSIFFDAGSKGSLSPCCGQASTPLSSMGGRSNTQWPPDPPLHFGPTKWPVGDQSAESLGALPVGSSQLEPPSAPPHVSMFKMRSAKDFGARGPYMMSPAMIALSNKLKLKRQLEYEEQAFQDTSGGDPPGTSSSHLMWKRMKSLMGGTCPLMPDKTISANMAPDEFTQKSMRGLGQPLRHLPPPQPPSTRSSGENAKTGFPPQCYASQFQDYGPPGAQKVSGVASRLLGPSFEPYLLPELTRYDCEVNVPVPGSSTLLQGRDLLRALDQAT

B1: human prolyl 4-hydroxylase PH-2 (enzyme)
chain: MAAAAVTGQRPETAAAEEASRPQWAPPDHCQAQAAAGLGDGEDAPVRPLCKPRGICSRAYFLVLMVFVHLYLGNVLALLLFVHYSNGDESSDPGPQHRAQGPGPEPTLGPLTRLEGIKVGHERKVQLVTDRDHFIRTLSLKPLLFEIPGFLTDEECRLIIHLAQMKGLQRSQILPTEEYEEAMSTMQVSQLDLFRLLDQNRDGHLQLREVLAQTRLGNGWWMTPESIQEMYAAIKADPDADGVLSLQEFSNMDLRDFHKYMRSHKAESSELVRNSHHTWLYQGEGAHHIMRAIRQRVLRLTRLSPEIVELSEPLQVVRYGEGGHYHAHVDSGPVYPETICSHTKLVANESVPFETSCRYMTVLFYLNNVTGGGETVFPVADNRTYDEMSLIQDDVDLRDTRRHCDKGNLRVKPQQGTAVFWYNYLPDGQGWVGDVDDYSLHGGCLVTRGTKWIANNWINVDPSRARQALFQQEMARLAREGGTDSQPEWALDRAYRDARVEL
On to B1, for which the “activity of HIF-2 alpha on the hypoxia responsive reporter gene construct (equal amounts of each plasmid); activity of PH-2 relative to EGLN3” value is 2 fold less active than EGLN3.

(Values after patent publication US20060110769A1 (Bayer, published 2006).)
